Measurements as given in paper PMC12561426, “Dissecting the Interplay Between NRF2 and BACH1 at CsMBEs”.

How the values were obtained:
[1] = target: T1, NRF2DBD (UniProt Q16236 451-567); assay: EMSA; apparent; homodimer; 150 mM NaCl, 50 mM HEPES pH 7.9, 10% glycerol, 1 mM TCEP, 1 mM DTT, 2 mM MgCl2; 3 nM DNA; TEV and 3C 50 ug/mL each, 4 h 25 °C; competition then O/N 4 °C; gels 4 °C in 1X TBE; conditions: protein: recombinant; tags: C-terminal 3C-6xHis; chain copies: 2; label: 5' fluorescein on forward strand; blunt
T1 sequence: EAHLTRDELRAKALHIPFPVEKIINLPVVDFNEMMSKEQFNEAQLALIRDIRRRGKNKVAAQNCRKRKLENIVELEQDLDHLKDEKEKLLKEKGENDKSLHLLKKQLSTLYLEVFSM

[2] = target: sMafGDBD (UniProt O15525 1-162); assay: as above; conditions: protein: recombinant; tags: N-terminal 6xHis-TEV; chain copies: 2; label: 5' fluorescein on forward strand; blunt
[3] = target: BACH1DBD (UniProt O14867 511-627); assay: EMSA; apparent; homodimer concentration; 150 mM NaCl, 50 mM HEPES pH 7.9, 10% glycerol, 1 mM TCEP, 1 mM DTT, 2 mM MgCl2; 3 nM DNA; TEV and 3C 50 ug/mL each, 4 h 25 °C; competition then O/N 4 °C; gels 4 °C in 1X TBE; conditions: protein: recombinant; tags: C-terminal 3C-6xHis; chain copies: 2; label: 5' fluorescein on forward strand; blunt
BACH1DBD, sequence (O14867 511-627): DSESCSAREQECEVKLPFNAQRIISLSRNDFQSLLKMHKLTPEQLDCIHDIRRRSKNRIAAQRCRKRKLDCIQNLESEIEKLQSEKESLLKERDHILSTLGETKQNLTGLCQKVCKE

B1: HMOX1 CsMBE 30-mer (dsDNA)
DNA 1: CTCGGGACCGTGACTCAGCAGGAAAAACAC
DNA 2: GTGTTTTTCCTGCTGAGTCACGGTCCCGAG
Kd [1]: ~590 nM
Kd [2]: ~203 nM
Kd [3]: ~802 nM
